Results: IntAct's records for PubMed 24114786

Assays:
flica_pseai fliC = flica_pseai fliC (UniProt P21184)
bak1_arath BAK1 = bak1_arath BAK1 (UniProt Q94F62)
bak1_arath BAK1, sequence (Q94F62 whole entry): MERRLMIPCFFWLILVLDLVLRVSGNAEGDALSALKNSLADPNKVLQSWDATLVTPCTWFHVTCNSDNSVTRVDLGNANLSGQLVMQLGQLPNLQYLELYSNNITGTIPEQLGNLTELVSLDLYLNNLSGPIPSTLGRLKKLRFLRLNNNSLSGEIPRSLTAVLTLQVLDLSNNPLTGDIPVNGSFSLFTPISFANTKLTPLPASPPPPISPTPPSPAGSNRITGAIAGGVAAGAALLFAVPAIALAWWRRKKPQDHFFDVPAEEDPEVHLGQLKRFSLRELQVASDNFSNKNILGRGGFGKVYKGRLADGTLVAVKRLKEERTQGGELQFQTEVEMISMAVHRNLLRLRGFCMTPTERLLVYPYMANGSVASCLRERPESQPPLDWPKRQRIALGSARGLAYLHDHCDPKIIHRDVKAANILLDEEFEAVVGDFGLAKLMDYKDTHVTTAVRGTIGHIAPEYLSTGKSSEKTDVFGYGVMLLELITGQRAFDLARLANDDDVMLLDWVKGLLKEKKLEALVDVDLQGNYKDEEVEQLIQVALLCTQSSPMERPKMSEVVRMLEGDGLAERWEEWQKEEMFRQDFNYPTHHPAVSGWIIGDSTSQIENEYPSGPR

flica_pseai fliC, sequence (P21184 whole entry): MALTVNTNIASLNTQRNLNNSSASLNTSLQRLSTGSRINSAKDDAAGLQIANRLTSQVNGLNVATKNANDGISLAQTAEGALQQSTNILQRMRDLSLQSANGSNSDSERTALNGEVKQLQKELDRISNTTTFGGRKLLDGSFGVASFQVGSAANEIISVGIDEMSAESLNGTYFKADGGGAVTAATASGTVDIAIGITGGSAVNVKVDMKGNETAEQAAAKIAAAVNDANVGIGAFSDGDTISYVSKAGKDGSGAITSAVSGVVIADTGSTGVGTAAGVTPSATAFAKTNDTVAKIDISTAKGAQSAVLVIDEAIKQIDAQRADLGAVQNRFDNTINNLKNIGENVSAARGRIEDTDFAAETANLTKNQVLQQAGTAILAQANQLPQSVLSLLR
LRR receptor-like serine/threonine-protein kinase FLS2 (Arabidopsis thaliana (Mouse-ear cress)), Q9FL28 R294A;H316A, sequence (Q9FL28 whole entry R294A/H316A): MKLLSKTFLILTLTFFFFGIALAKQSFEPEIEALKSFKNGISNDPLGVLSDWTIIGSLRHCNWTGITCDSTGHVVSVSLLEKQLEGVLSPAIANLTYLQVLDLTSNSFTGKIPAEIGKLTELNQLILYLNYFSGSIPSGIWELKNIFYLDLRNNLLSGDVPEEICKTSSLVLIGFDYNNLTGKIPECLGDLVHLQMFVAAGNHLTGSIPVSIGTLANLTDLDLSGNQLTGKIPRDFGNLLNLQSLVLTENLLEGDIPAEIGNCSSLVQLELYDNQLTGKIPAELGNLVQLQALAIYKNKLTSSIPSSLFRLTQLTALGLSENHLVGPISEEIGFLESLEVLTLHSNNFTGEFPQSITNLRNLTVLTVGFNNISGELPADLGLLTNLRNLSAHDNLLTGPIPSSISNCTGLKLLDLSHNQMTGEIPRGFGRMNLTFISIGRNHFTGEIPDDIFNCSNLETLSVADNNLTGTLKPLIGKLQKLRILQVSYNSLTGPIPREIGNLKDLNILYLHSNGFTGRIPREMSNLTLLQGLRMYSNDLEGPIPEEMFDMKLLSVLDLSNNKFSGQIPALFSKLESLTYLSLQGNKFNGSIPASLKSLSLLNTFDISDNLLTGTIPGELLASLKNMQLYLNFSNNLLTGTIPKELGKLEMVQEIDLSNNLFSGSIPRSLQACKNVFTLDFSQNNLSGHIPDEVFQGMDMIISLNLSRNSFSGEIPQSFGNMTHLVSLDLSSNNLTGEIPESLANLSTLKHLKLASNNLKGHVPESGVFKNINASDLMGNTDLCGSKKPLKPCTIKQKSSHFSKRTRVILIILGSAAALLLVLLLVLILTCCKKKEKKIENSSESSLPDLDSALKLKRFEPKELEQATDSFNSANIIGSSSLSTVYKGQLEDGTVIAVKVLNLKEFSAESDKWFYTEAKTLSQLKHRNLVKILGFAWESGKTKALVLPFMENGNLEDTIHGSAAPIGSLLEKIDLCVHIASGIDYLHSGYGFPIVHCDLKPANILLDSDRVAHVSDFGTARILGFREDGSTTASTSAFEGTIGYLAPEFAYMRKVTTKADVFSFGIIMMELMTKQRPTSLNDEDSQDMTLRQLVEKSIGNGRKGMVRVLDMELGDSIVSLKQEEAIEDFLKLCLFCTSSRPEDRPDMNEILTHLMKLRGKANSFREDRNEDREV
LRR receptor-like serine/threonine-protein kinase FLS2 (Arabidopsis thaliana (Mouse-ear cress)), Q9FL28 D414A, sequence (Q9FL28 whole entry D414A): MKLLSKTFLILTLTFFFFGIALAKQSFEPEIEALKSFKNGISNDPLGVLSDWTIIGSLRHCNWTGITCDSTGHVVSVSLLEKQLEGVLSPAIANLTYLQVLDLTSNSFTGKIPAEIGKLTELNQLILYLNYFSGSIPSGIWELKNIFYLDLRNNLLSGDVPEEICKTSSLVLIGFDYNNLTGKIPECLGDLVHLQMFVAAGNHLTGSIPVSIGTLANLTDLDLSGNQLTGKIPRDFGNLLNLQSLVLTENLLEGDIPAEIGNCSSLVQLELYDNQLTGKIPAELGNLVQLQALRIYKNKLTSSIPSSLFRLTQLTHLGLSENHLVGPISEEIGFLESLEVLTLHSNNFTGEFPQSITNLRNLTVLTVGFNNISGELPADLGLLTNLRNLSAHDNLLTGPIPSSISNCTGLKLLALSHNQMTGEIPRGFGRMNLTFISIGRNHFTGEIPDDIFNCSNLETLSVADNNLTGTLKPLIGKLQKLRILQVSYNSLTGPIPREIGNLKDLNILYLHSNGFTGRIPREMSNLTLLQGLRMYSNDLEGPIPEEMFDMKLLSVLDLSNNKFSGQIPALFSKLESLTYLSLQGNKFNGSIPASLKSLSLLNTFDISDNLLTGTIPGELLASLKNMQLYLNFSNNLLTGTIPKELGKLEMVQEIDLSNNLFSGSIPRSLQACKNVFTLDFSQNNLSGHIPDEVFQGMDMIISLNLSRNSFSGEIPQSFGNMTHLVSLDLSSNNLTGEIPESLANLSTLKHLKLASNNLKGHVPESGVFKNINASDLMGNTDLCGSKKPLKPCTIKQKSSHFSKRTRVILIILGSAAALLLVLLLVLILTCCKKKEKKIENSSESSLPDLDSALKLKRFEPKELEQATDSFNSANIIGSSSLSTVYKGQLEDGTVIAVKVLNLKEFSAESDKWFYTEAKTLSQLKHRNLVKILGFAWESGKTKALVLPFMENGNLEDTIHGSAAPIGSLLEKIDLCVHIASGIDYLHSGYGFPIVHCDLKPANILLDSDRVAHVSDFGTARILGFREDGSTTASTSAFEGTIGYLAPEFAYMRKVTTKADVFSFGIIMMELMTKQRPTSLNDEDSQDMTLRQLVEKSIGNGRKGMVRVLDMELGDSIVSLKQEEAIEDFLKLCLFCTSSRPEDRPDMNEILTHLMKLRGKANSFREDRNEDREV
LRR receptor-like serine/threonine-protein kinase FLS2 (Arabidopsis thaliana (Mouse-ear cress)), Q9FL28 S437Y, sequence (Q9FL28 whole entry S437Y): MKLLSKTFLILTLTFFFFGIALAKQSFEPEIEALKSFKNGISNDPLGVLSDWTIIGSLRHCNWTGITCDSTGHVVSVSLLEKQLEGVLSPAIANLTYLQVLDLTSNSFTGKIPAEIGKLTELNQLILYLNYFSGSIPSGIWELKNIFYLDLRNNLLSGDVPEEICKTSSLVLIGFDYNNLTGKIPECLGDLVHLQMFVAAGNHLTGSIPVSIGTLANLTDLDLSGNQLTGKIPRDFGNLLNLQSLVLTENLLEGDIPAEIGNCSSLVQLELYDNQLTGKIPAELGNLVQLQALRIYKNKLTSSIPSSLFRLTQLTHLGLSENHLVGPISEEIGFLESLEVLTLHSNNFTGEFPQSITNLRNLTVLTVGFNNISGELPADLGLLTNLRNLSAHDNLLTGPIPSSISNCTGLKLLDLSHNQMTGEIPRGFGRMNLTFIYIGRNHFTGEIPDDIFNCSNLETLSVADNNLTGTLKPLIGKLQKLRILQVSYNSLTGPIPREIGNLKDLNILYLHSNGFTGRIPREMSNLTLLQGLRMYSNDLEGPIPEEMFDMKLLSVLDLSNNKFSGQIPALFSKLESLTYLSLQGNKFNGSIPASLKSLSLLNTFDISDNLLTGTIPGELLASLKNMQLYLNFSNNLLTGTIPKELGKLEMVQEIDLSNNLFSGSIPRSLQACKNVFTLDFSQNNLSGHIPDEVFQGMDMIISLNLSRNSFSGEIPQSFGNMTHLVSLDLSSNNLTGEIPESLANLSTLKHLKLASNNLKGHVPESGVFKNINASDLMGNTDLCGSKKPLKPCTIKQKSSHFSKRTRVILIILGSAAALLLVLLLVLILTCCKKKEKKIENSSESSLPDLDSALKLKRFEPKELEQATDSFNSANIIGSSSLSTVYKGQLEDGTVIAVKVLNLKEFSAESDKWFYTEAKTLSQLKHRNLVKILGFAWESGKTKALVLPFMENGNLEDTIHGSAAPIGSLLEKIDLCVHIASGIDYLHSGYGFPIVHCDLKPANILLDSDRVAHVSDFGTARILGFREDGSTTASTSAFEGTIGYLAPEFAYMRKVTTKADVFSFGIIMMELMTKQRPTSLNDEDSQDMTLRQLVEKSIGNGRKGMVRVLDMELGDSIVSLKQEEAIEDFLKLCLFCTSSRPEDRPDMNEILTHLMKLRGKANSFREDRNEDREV

Row | Substance | effect of a mutation on the interaction (flica_pseai fliC) | effect of a mutation on the interaction (bak1_arath BAK1)
1 | LRR receptor-like serine/threonine-protein kinase FLS2 (Arabidopsis thaliana (Mouse-ear cress)), Q9FL28 T342Y | disrupting interaction strength | disrupting interaction strength
2 | LRR receptor-like serine/threonine-protein kinase FLS2 (Arabidopsis thaliana (Mouse-ear cress)), Q9FL28 R294A;H316A | disrupting interaction strength | disrupting interaction strength
3 | LRR receptor-like serine/threonine-protein kinase FLS2 (Arabidopsis thaliana (Mouse-ear cress)), Q9FL28 S437Y | decreasing interaction strength | decreasing interaction strength
4 | LRR receptor-like serine/threonine-protein kinase FLS2 (Arabidopsis thaliana (Mouse-ear cress)), Q9FL28 D414A | decreasing interaction strength | decreasing interaction strength
